Experiment in all cases: SEC
For experiment [1], the target named is Hera_CTD (C-terminal domain of Hera, amino acids 370-511) (Thermus thermophilus HB27).
The target of experiment [2] is Hera_E115C/R260C (Thermus thermophilus HB27).
Experiment [3] addresses Hera_core (aa 1-365) (Thermus thermophilus HB27).
Experiment [4] addresses Hera_core_E115C/R260C (Thermus thermophilus HB27).
The target in experiment [5] is Thermus thermophilus DEAD box helicase Hera, wild-type (Thermus thermophilus HB27) (UniProt Q72GF3).

As usually defined, the stoichiometry N is the number of molecules, sites or subunits per partner or assembly.

For “Hera_CTD (C-terminal domain of Hera, amino acids 370-511) (domain or fragment)”, the stoichiometry N in experiment [1] was determined as 2.
The substance Hera_E115C/R260C (enzyme) came in with a stoichiometry N in experiment [2] of 2.
“Hera_core (aa 1-365) (domain or fragment)” displayed a stoichiometry N in experiment [3] of 2.
“Hera_core_E115C/R260C (domain or fragment)”: the stoichiometry N in experiment [4] stood at 2.
On to “Thermus thermophilus DEAD box helicase Hera, wild-type (from UniProt Q72GF3 1-517) (enzyme)”, for which the stoichiometry N in experiment [5] was determined as 2.
